Numbered stars: 1 amine (or outer) side, 2 acyl side, 3 side chain; on linkers, the order of the positions; unused ones are H or OH. Square brackets hold non-standard residues; d marks the D form. Peptide text beside a SMILES is read from it. * marks the point of attachment. NOTA = O=C(O)CN1CCN(CC(=O)O)CCN(CC(=O)*)CC1; azaPhe = O=C(N(Cc1ccccc1)N[*:1])[*:2]; Nle = CCCC[C@H](N)C(=O)O; azaGly = NNC(=O)O
Experiments:
Aβ40 = target: T1, Aβ40 (Homo sapiens, UniProt P05067); assay: Thioflavin T (ThT) fluorescence assay of Aβ40 aggregation; type: biochemical; details: ThT, 10 μM soluble Aβ40
T1 construct: The extent of Aβ40 aggregation in the presence of increasing concentrations of azacyclopeptides
Protocol: Amyloid generation can be identified and quantified using the thioflavin T (ThT) fluorescence dye assay. […] Agents that bind and inhibit aggregation of Aβ diminish ThT fluorescence relative to untreated Aβ. The extent of Aβ40 aggregation in the presence of increasing concentrations of azacyclopeptides and azasulfurylcyclopeptide 55 was evaluated by the ThT assay. Fluorescence of Aβ40 that was aged for 48 h was used as control, defined as 0% anti-amyloidogenic activity, and compared with fluorescence in the presence of cyclic peptide mimics at increasing concentrations to measure anti-amyloidogenic activity.

CL2006 C. elegans strain = tested on: CL2006 C. elegans strain; parameters: species or system Caenorhabditis (C.) elegans; details: in vivo
Text: Compound 3 was used in two in vivo transgenic Caenorhabditis (C.) elegans models expressing human Aβ42. The CL2006 C. elegans strain produces constitutively a body-wall muscle-specific Aβ42, the aggregation of which causes age-dependent paralysis, motility dysfunction and consequently short lifespan. The CL2355 strain expresses a temperature-inducible pan-neuronal Aβ42, accumulation of which leads to deficits in chemotaxis, associative learning and thrashing in liquid. The CL2006 mutant and control CL802 wild type worms had respective lifespans of 13.6 and 15.6 days (P<0.005, FIG. 3A).

Aβ species = assay: PET imaging of ^64Cu-conjugates in 5×FAD mice; type: in vivo; details: for Aβ uptake (activity in the Aβ species) / Aβ uptake relative to ^64Cu-1-NOTA: 6-month old 5×FAD mice; for Aβ uptake (activity in the Aβ species): 20 h post-injection
Protocol: (§1) Images were taken 3 weeks apart on the same 5×FAD mouse for ^64Cu-conjugate 43 and ^11C-PIB (FIGS. 1B and C) using the 2-(4′-[^11C]methylaminophenyl)-6-hydroxybenzothiazole (^11C-PIB) compound. Use of ^11C-PIB is limited to 1 h due to short half-life (t1/2=20.4 min). […] In control 44 day-old WT mouse at 1-day post-injection of ^64Cu-conjugate 43, brain uptake is very low (FIG. 1D). Non-transgenic littermates (labeled as wild type (WT) controls in the text and FIG. 1D) were housed in the same manner as 5×FAD mice and used for comparison.
(§2) Amyloid plaque detection was evaluated in 4.5-7-month-old Tg [5×FAD] mice and age-matched wild-type controls using the ^11C-PIB compound. 5×FAD mice carry both mutant human APP(695) with the Swedish (K670N, M671L), Florida ([…]), and London (V717I) Familial Alzheimer's Disease (FAD) mutations and human PS1 harboring two FAD mutations, M146L and L286V. 5×FAD mice develop plaque formation beginning at 2 months and cognitive deficits at 4-6 months. […] Amyloid beta of ^64Cu-conjugate 40 in hippocampus at 1 h post injection (1.285±0.034% ID/g) was similar to that of ^11C-PIB (1.038±0.028% ID/g. FIG. 1) in the cortex.
(§3) Red and blue colours represent respectively highest and zero uptake. […] Different intensity scales were used for PET images. […] Images were taken 3 weeks apart on different mouse for ^64Cu-43 and ^11C-PIB. Co-registration of experimental image data with brain mask to mouse atlas space was achieved to identify volumes of interest. 1. Striatum; 2. Cortex; 3. Hippocampus; 4. Thalamus; 5. Cerebellum; 6. Basal forebrain septum; 7. Hypothalamus; 8. Amygdala; 9. Brain stem; 10. Central gray; 11. […] Olfactory bulb; 13. Midbrain; 14.

[1] = PET imaging and biodistribution, formulation tests in Balb/c mice; type: in vivo
Protocol: Different formulations were tested with the ^64Cu-1-NOTA conjugate to investigate the solubility of the PET tracer in vivo and select the best formulation for PET imaging studies. […] For further in vivo studies, 8% DMSO and 9% sucrose (for azaconjugates) were used.

[2] = PET imaging of ^64Cu-conjugates in 5×FAD mice; type: in vivo; details: mouse, in vivo, total radioactivity
Protocol: as §1, §2, §3

T1 sequence (P05067 672-711 limits assumed): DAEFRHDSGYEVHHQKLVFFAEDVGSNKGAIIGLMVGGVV

In the case of CCCC[C@@H]1NC(=O)[C@@H](CC(C)C)NC(=O)[C@H](CCCCN)NC(=O)NNC(=O)[C@H](Cc2c[nH]cn2)NC(=O)[C@@H](Cc2c[nH]c3ccccc23)NC1=O [Compound 3, c(D-Leu-L-Nle-D-Trp-L-His-Gly*-L-Lys)] (cyclo(K[dL][Nle][dW]H[azaGly])), the “Inhibition of amyloidogenic activity(%)” value (Aβ40; Aβ:peptide 1:1) is reported as 83.7%, the “Inhibition of amyloidogenic activity(%)” value (Aβ40; Aβ:peptide 1:5) is reported as 81.3% and the “Inhibition of amyloidogenic activity(%)” value (Aβ40; Aβ:peptide 1:10) is reported as 83.7%. For the same molecule, the toxicity and longevity (CL2006 C. elegans strain) was “no toxicity and no influence on wild type CL802 worm longevity”.
In the case of [11CH3]Nc1ccc(-c2nc3ccc(O)cc3s2)cc1 [^11C-PIB, 2-(4′-[^11C]methylaminophenyl)-6-hydroxybenzothiazole, reference compound], the “uptake in the cortex” value (Aβ species; 5×FAD mice, ^11C-PIB) is reported as 1.038±0.028 % ID/g.
For CCCC[C@@H]1NC(=O)[C@@H](CC(C)C)NC(=O)[C@H](CCCCNC(=O)CN2CCN(CC(=O)O)CCN(CC(=O)O)CC2)NC(=O)[C@@H](CO)NC(=O)[C@H](Cc2c[nH]cn2)NC(=O)[C@@H](Cc2c[nH]c3ccccc23)NC1=O [^64Cu-1-NOTA, metal not drawn] (cyclo([dL][Nle][dW]H[dS]K(NOTA))), the “Aβ uptake (activity in the Aβ species)” value (Aβ species) was 0.430±0.010 % ID/g, the organ uptake ([1]; Intra-lipid (20% IV fat-emulsion) formulations) was “lower uptake in the lungs and a higher uptake in the gastrointestinal tract and gallbladder” and the organ uptake ([1]; formulated in 8% DMSO) was “High lung and liver uptake”.
Molecule CCCC[C@@H]1NC(=O)N(Cc2ccccc2)NC(=O)[C@H](CCCCNC(=O)CN2CCN(CC(=O)O)CCN(CC(=O)O)CC2)NC(=O)[C@@H](CO)NC(=O)[C@H](Cc2c[nH]cn2)NC(=O)[C@@H](Cc2c[nH]c3ccccc23)NC1=O [^64Cu-conjugate 40, metal not drawn] (cyclo([azaPhe][Nle][dW]H[dS]K(NOTA))) has a tissue uptake ([2]; 5×FAD mice at 4.5 months, read-out: accumulation of activity in the Aβ species) of 0.165 ± 0.005 %ID/g, a tissue uptake at 1 h ([2]; 5×FAD mice, 1 h post injection, read-out: uptake in hippocampus) of 1.28 ± 0.034 %ID/g and a tissue uptake at 20 h ([2]; 6-month old 5×FAD mice, 20 h post-injection, read-out: Aβ uptake (activity in the Aβ species)) of 2.1 ± 0.059 %ID/g. For the same molecule, the “time of highest activity value in Aβ species” value (Aβ species; 5×FAD mice, post injection) was 1 days, the “Aβ uptake relative to ^64Cu-1-NOTA” value (Aβ species) was “approximatively five times superior” and the “Aβ uptake (activity in the Aβ species)” value (Aβ species) was 2.102±0.059 % ID/g.
With CCCC[C@@H]1NC(=O)[C@@H](CC(C)C)NC(=O)[C@H](CCCCNC(=O)CN2CCN(CC(=O)O)CCN(CC(=O)O)CC2)NC(=O)NNC(=O)[C@H](Cc2c[nH]cn2)NC(=O)[C@@H](Cc2c[nH]c3ccccc23)NC1=O [^64Cu-conjugate 43, metal not drawn] (cyclo([dL][Nle][dW]H[azaGly]K(NOTA))) the “Aβ uptake relative to ^64Cu-1-NOTA” value (Aβ species) was “approximatively five times superior”, the “Aβ uptake (activity in the Aβ species)” value (Aβ species) was 2.030±0.056 % ID/g and the “uptake into the thalamus” value (Aβ species; Tg female 5×FAD AD mice, 9% sucrose in saline, 1-day post-injection) was “increased with age from 44 to 72 days”. For the same molecule, the brain uptake (Aβ species; control 44 day-old WT mouse, 1-day post-injection) was “very low”.

Reference: US12616760B2, “Synthetic cyclic peptide mimetics” (priority 2020, dated 2026)
